According to PMC8828901, “Sox9 is involved in the thyroid differentiation program and is regulated by crosstalk between TSH, TGFβ and thyroid transcription factors”:

Legend:
[1] = target: Smad3 (TNT-Smad3) (UniProt P84022 1-425); assay: EMSA; specific; 40 mM Hepes pH 7.9, 75 mM KCl, 0.2 mM EDTA, 0.5 mM DTT, 150 ng/ul poly(dI-dC), 5% Ficoll, room temperature, 30 min; 7 ug TNT protein; competitor 100-fold or 50-fold (Methods); details: protein: ivt; label: 32P; blunt
[2] = target: CREB (TNT-CREB) (UniProt P16220 1-327); assay: as above; details: protein: ivt; chain copies: 2; label: 32P; blunt
CREB (TNT-CREB), sequence (P16220 whole entry): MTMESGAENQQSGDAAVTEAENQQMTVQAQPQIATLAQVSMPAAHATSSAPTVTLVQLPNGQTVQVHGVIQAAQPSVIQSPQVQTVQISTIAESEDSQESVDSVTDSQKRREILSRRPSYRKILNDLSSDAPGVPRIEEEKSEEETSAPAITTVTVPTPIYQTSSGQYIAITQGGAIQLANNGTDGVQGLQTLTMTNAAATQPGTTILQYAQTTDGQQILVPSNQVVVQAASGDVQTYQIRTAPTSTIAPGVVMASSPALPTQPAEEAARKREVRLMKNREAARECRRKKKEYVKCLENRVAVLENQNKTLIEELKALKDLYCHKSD

Smad3 (TNT-Smad3), sequence (P84022 whole entry): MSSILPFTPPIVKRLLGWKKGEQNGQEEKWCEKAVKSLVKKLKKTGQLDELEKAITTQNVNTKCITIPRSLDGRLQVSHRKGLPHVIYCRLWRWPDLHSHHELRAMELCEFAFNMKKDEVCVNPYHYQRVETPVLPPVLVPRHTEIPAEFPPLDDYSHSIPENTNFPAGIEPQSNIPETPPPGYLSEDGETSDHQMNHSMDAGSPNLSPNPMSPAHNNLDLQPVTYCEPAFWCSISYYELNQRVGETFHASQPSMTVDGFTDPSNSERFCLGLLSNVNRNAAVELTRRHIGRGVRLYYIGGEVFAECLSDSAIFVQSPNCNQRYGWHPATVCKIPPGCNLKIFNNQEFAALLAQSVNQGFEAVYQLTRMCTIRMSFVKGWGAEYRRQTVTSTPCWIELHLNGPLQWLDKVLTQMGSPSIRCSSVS

Binder	binding result [1]	binding result [2]
Sox9 promoter Smad site (dsDNA) DNA 1: CTCGGAACTGTCTGGAAACTTCAG DNA 2: CTGAAGTTTCCAGACAGTTCCGAG	binds	
Sox9 promoter CRE (dsDNA) DNA 1: CCTCGAGTCTCGTCACCCA DNA 2: TGGGTGACGAGACTCGAGG		binds
